Measured values: patent publication US20160279299A1, “SILK FIBROIN-BASED FLUID DELIVERY SYSTEMS AND DEVICES” (TRUSTEES OF TUFTS COLLEGE, priority 2013, published 2016)

System: fat grafts (human lipoaspirate)
Assay: In-vivo murine model of adipose tissue reconstruction: lipoaspirate fat graft perfused via silk fibroin-based catheter and osmotic pump
Method: Female athymic nude mice were divided into 3 groups: animals treated with insulin (n=24), dexamethasone (n=15), or PBS vehicle (n=10). The groups were further subdivided into four different doses for insulin (e.g., ˜100 μg, ˜300 μg, ˜650 μg, or ˜1000 μg) or three different doses for dexamethasone (e.g., ˜1 mg/ml, ˜2 mg/ml, ˜3 mg/ml). Osmotic pumps that can deliver a fluid with a selected flow rate for a period of time were prepared with the insulin or dexamethasone solution or PBS vehicle. In this Example, ALZET 4-week osmotic pumps with a selected flow rate of ˜0.11 μl/hr were used. One end of the silk fibroin-based catheter was connected to the pump, e.g., using medical grade silicone (e.g., Dow Corning) (FIG. 8A). The silk catheter/pump construct was primed for 48 hours at 37° C., per manufacturer's instructions.
Lipoaspirate grafts were obtained from human subcutaneous abdominal fat during scheduled elective surgery and processed for injection under laboratory conditions. Lipoaspirate was loaded into ˜1 ml syringes in sterile fashion. Mice were anesthetized with 2% isoflurane in oxygen at the time of the procedure. Once the anesthetic plane was obtained, the animals were prepped for sterile surgery. Each animal received two bilateral ˜500 μl subcutaneous injections of lipoaspirate on the dorsal region, for example, through a 16G Coleman cannula using the fan-injection technique, which uniformly spreads the fat graft created beneath the cutaneous layer. For each animal, one of the two fat grafts received a silk fibroin-based catheter connected to an implantable osmotic pump. The silk catheter/pump was implanted subcutaneously through a small incision between the scapulae, and the fat graft was placed surrounding the silk fibroin-based catheter. The incision for the catheter/pump implantation was closed with a standard wound clip. To prevent and/or reduce pain and discomfort, mice were given subcutaneous injections of ˜5 mg/kg ketoprofen (Fort Dodge Animal Health, Fort Dodge, Iowa) immediately after the surgical procedure and every 24 hours as needed.
At 4 weeks post surgery, the mice were euthanized using carbon dioxide asphyxiation followed by cervical dislocation, and graft tissue was isolated from the bilateral dorsal injection sites. Explants were assessed for mass on a standard laboratory balance, and volume was measured using a gas pycnometer (Accupyc II 1340; Micrometrics, Atlanta, Ga.). Immediately after the dimensional analysis was complete, the tissue samples were fixed in 10% neutral buffered formalin and processed and embedded in paraffin.

Row | Molecule | survival of animals (highest insulin groups, ~1000 μg and ~650 μg) | group (dose) with the highest volume retention (insulin at ~0.11 μL/hr, 28 days post-implantation) | H&E: cellular response to the silk fibroin-based catheter (insulin doses, 28 days) | deaths (insulin ~300 μg group) | fat retention and adipogenesis (insulin ~300 μg group, 28 days) | H&E: tissue around the silk fibroin-based catheter (insulin ~1000 μg dose, 28 days) | volume retention of fat grafts, statistical significance (insulin ~100, ~300, ~650, ~1000 μg at ~0.11 μL/hr, 28 days post-implantation, gas pycnometry) | fat graft health / biocompatibility (insulin-treated mice, 4 weeks) | dose with the largest effect on fat graft volume (dexamethasone at ~0.11 μL/hr, 28 days post-implantation) | adverse events during the therapy (mouse, in vivo)
1 | insulin | generally died during the study period | ~300 µg | little to no cellular response | no deaths due to drug overdose | trend toward fat retention and adipogenesis | a fibrous tissue was observed to surround the silk fibroin-based catheter | no statistical significance in volume retention | no evidence of oil cysts or adverse biocompatibility reaction |  | 
2 | C[C@@H]1C[C@H]2[C@@H]3CCC4=CC(=O)C=C[C@]4(C)[C@@]3(F)[C@@H](O)C[C@]2(C)[C@@]1(O)C(=O)CO [dexamethasone] |  |  |  |  |  |  |  |  | ~2 mg/mL | no adverse events
